# Test results reported in patent US20240245799A1, “PREPARATION METHOD FOR ANTIBODY-DRUG CONJUGATE, AND APPLICATION” (priority 2021, published 2024).
# Experiments:
# [1] = tested on: NCI-H2170, LK-2 and MDA-MB-231 tumor cells; assay: In vitro cytotoxic activity test, overall statements on the tumor cells of Table 1; assay type: cell-based, human; details: statement on Table 1
# Experimental: Human lung squamous carcinoma cell NCI-H2170 and LK-2, and human breast cancer cell MDA-MB-231 were selected as the cell lines for in vitro activity detection in this experiment. The expression profile of the TROP2 antigen on the surfaces of the above human tumor cells (represented by rMFI) was determined by flow cytometry (FACS). At the same time, the dose-effect profiles of Antibody Conjugate 13, DS-1062a (the control drug, prepared according to the method described in U.S. Ser. No. 11/173,213B2), the hIgG-deruxtecan conjugate and the hIgG-A-11 conjugate on cell killing were observed. The final concentrations of the antibody drug conjugates after addition were designed as a series of 9 concentrations from […] with 500 nM as the initial concentration. The changes in killing (or inhibition) over 120 hours were observed. Chemiluminescence staining (Luminescent Cell Viability Assay) was carried out, and IC50 was calculated after reading the […] data.
# [2] = tested on: Human lung squamous carcinoma cells NCI-H2170; assay: In vivo anti-tumor experiment, subcutaneous NCI-H2170 xenograft; parameters: species or system female nude mice; details: single dose of 5 mg/kg intravenously on day 0, FIG. 28
# Experimental: The efficacy of the combination of the present invention can be measured in vivo, i.e., an allograft or xenograft of cancer cells was implanted in rodents, and the tumors were treated with the combination. Test mice were treated with drugs or controls and monitored for several weeks or longer to measure the time to tumor doubling, log cell killing, and tumor inhibition.
# Human lung squamous carcinoma cells NCI-H2170 (ATCC) were suspended in physiological saline. 4×10^7 cells were subcutaneously transplanted into the right flank of female nude mice, which were randomized into groups on day 6. Taking the grouping day as day 0, Antibody Conjugate 13, DS-1062a (the positive control drug) and the hIgG-A-11 conjugate as a negative control group were administered intravenously to the tail at a dose of 5 mg/kg respectively on day 0.
molecule,measurement,setting,value
"DS-1062a (conjugate, chains of the INN, looked up, deruxtecan payload) VH: QVQLVQSGAEVKKPGASVKVSCKASGYTFTTAGMQWVRQAPGQGLEWMGWINTHSGVPKYAEDFKGRVTISADTSTSTAYLQLSSLKSEDTAVYYCARSGFGSSYWYFDVWGQGTLVTVSS VL: DIQMTQSPSSLSASVGDRVTITCKASQDVSTAVAWYQQKPGKAPKLLIYSASYRYTGVPSRFSGSGSGTDFTLTISSLQPEDFAVYYCQQHYITPLTFGQGTKLEIK",inhibition of tumor cell proliferation / in vitro anti-tumor activity,[1],could inhibit tumor cell proliferation significantly
same,in vivo anti-tumor activity,[2],showed anti-tumor activity
